The results in this text go back to PMC12585912.

For one series, the target named is His101 (UniProt position 101, RLRALHMKEHP). As to the kind of experiment: NMR. The following applies: 293 K per the general NMR methods; not restated for the pH titration; 150 mM ionic strength; not given for the titration ("All buffers were controlled to 150 mM ionic strength"); the standard NMR buffer is 20 mM Tris, 135 mM KCl, 15 mM NaCl, pH 7.3; bound to specific FGF4 dsDNA (13-mer containing the TTGT motif).

The target of a further series is His67 (UniProt position 67, ENPKMHNSEIS). As to the kind of experiment: NMR. As to conditions: 293 K per the general NMR methods, not restated for the pH titration, 150 mM ionic strength, not given for the titration ("All buffers were controlled to 150 mM ionic strength"), the standard NMR buffer is 20 mM Tris, 135 mM KCl, 15 mM NaCl, pH 7.3.

Chain of Transcription factor SOX-2, extended DNA-binding (HMG) domain, Sox2 31-127 (Homo sapiens) (chain, as listed by the source): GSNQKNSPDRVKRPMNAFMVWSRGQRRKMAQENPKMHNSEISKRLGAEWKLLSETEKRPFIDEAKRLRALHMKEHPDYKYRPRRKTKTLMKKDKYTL

Turning to “Transcription factor SOX-2, extended DNA-binding (HMG) domain, Sox2 31-127 (Homo sapiens)”, the pKa with His101 is 4.1; with His67 (bound to specific FGF4 dsDNA (13-mer containing the TTGT motif)), 6.25; in the series with His67 (free Sox2 31-127, folded), 5.76.

As a reminder, the pKa is the pH at which an ionisable group is half protonated.
